# In article PMC8962251 (Biomedicines, 2022):
# Where no end group is shown, it is not given here.
# B1: CVRBDL-3 (peptide)
# peptide: HDFWWEYDKKNDTWTRRRR-NH2
# notes: also called CVRDBL-3; CVRBD-3; source: synthetic peptide; bought: CASLO
# How the values were obtained:
# [1] = biological target: T1, SARS-CoV-2 RBD (High Five insect cells, 6x His-tag) (SARS-CoV-2, UniProt P0DTC2); test: SPR; settings: both partners purified
# T1 construct: source: High Five insect cells, purified (HisExcel, SEC)
# [2] = biological target: T2, SARS-CoV-2 S1S2-His (monomeric S1S2 spike protein) (SARS-CoV-2, UniProt P0DTC2 14-1213); test: SPR; settings: both partners purified
# T2 construct: source: High Five insect cells, purified (HisExcel, SEC)
binder,measurement,setting,value
B1,stoichiometry N,[1],1
same,stoichiometry N,[2],1
